{"source": "the RNAGym collection of RNA variant scans (doi:10.7554/elife.80360)", "parents": {"B1": {"name": "Hairpin Ribozyme (parent)", "chain": "GUCCUCUUUCACGUGCGCGUGAAAGAGAGAAGUGAACCAGAGAAACACACGUUGUGGUAUAUUACCUGGUA"}}, "data": [{"variants_of": "B1", "assay": "self-cleavage, relative activity (ratio to wild type); higher = more cleavage; co-transcriptional", "values": [{"variant": "C3A C16U", "self-cleavage": 0.769}, {"variant": "C4A C37G", "self-cleavage": 0.0599}, {"variant": "C4A C37A", "self-cleavage": 0.159}, {"variant": "C4A A24C", "self-cleavage": 0.137}, {"variant": "C4G C16A", "self-cleavage": 0.304}, {"variant": "C4G C16U", "self-cleavage": 0.194}, {"variant": "C4U A43G", "self-cleavage": 0.141}, {"variant": "C3G C4G", "self-cleavage": 0.244}, {"variant": "C3G A24C", "self-cleavage": 0.238}, {"variant": "C3G A24G", "self-cleavage": 0.294}, {"variant": "C3G A24U", "self-cleavage": 0.248}, {"variant": "C3G A30U", "self-cleavage": 0.118}, {"variant": "C3G A30C", "self-cleavage": 0.0439}, {"variant": "C4G U7C", "self-cleavage": 0.15}, {"variant": "C4G U7A", "self-cleavage": 0.143}, {"variant": "C4G U8C", "self-cleavage": 0.0934}, {"variant": "C4A C10A", "self-cleavage": 0.16}, {"variant": "C4A C10U", "self-cleavage": 0.261}, {"variant": "C3U U55C", "self-cleavage": 0.153}, {"variant": "C4A U67A", "self-cleavage": 0.155}, {"variant": "C4A U67G", "self-cleavage": 0.144}, {"variant": "C3U G42C", "self-cleavage": 0.218}, {"variant": "C3A G27C", "self-cleavage": 0.21}, {"variant": "C3A G13A", "self-cleavage": 0.628}, {"variant": "C3A C50A", "self-cleavage": 0.145}, {"variant": "C3A C50U", "self-cleavage": 0.236}, {"variant": "C3A G15C", "self-cleavage": 0.65}, {"variant": "C3A G21A", "self-cleavage": 0.567}, {"variant": "C3A G21U", "self-cleavage": 0.655}, {"variant": "C3G G40U", "self-cleavage": 0.0655}, {"variant": "C3G G40C", "self-cleavage": 0.147}, {"variant": "C3G G40A", "self-cleavage": 0.0852}, {"variant": "C3U C66A", "self-cleavage": 0.0858}, {"variant": "C4U A64U", "self-cleavage": 0.205}, {"variant": "C4G G29C", "self-cleavage": 0.0848}, {"variant": "C3G U52A", "self-cleavage": 0.332}, {"variant": "C3U G15C", "self-cleavage": 0.727}, {"variant": "C3G C10U", "self-cleavage": 0.213}, {"variant": "C4A U7G", "self-cleavage": 0.221}, {"variant": "C4U A49C", "self-cleavage": 0.259}, {"variant": "C4U A49U", "self-cleavage": 0.128}, {"variant": "C4G C12G", "self-cleavage": 0.216}, {"variant": "C3A U8G", "self-cleavage": 0.541}, {"variant": "C4A A44C", "self-cleavage": 0.0924}, {"variant": "C4A A44G", "self-cleavage": 0.0937}, {"variant": "C4A U20G", "self-cleavage": 0.259}, {"variant": "C3U G54A", "self-cleavage": 0.251}, {"variant": "C3G G69U", "self-cleavage": 0.141}, {"variant": "C3U A64C", "self-cleavage": 0.0981}, {"variant": "C3U A64U", "self-cleavage": 0.238}, {"variant": "C4G U9A", "self-cleavage": 0.162}, {"variant": "C3G C50A", "self-cleavage": 0.0499}, {"variant": "C3G C50U", "self-cleavage": 0.13}, {"variant": "C4A G51C", "self-cleavage": 0.261}, {"variant": "C4G C6A", "self-cleavage": 0.195}, {"variant": "C3U U53G", "self-cleavage": 0.517}, {"variant": "C4G G56U", "self-cleavage": 0.148}, {"variant": "C4G G56A", "self-cleavage": 0.249}, {"variant": "C4A U70A", "self-cleavage": 0.25}, {"variant": "C4A U70C", "self-cleavage": 0.119}, {"variant": "C4G A36G", "self-cleavage": 0.248}, {"variant": "C4G C65U", "self-cleavage": 0.224}, {"variant": "C4G C65A", "self-cleavage": 0.206}, {"variant": "C4G C65G", "self-cleavage": 0.178}, {"variant": "C4A A71G", "self-cleavage": 0.346}, {"variant": "C4G G32A", "self-cleavage": 0.154}, {"variant": "C4G G54U", "self-cleavage": 0.228}, {"variant": "C3A G32U", "self-cleavage": 0.0959}, {"variant": "C3A G32A", "self-cleavage": 0.176}, {"variant": "C3A G32C", "self-cleavage": 0.114}, {"variant": "C3A U67C", "self-cleavage": 0.155}, {"variant": "C3G A47G", "self-cleavage": 0.179}, {"variant": "C3G U7G", "self-cleavage": 0.281}, {"variant": "C4A G25U", "self-cleavage": 0.214}, {"variant": "C4U A28G", "self-cleavage": 0.458}, {"variant": "C4A G68C", "self-cleavage": 0.141}, {"variant": "C4A G68A", "self-cleavage": 0.17}, {"variant": "C4A C66A", "self-cleavage": 0.146}, {"variant": "C4U A22U", "self-cleavage": 0.362}, {"variant": "C4G A61C", "self-cleavage": 0.164}, {"variant": "C4G A61U", "self-cleavage": 0.0796}, {"variant": "C4G A61G", "self-cleavage": 0.098}, {"variant": "C4G G68C", "self-cleavage": 0.134}, {"variant": "C4G G68U", "self-cleavage": 0.0845}, {"variant": "C3U U52G", "self-cleavage": 0.446}, {"variant": "C3U U52C", "self-cleavage": 0.611}, {"variant": "C3U A26U", "self-cleavage": 0.27}, {"variant": "C4A U33G", "self-cleavage": 0.234}, {"variant": "C3G G17U", "self-cleavage": 0.365}, {"variant": "C4G A59C", "self-cleavage": 0.15}, {"variant": "C4G A59G", "self-cleavage": 0.169}, {"variant": "C4G A59U", "self-cleavage": 0.212}, {"variant": "C4G A30G", "self-cleavage": 0.069}, {"variant": "C4G A71C", "self-cleavage": 0.483}, {"variant": "C3A C65A", "self-cleavage": 0.662}, {"variant": "C3G G32U", "self-cleavage": 0.141}, {"variant": "C3G G32C", "self-cleavage": 0.0586}, {"variant": "C3U C16A", "self-cleavage": 0.462}, {"variant": "C4U", "self-cleavage": 0.371}, {"variant": "C4G", "self-cleavage": 0.225}, {"variant": "C4A", "self-cleavage": 0.218}, {"variant": "C4A G13C", "self-cleavage": 0.223}, {"variant": "C3A C48A", "self-cleavage": 0.152}, {"variant": "C3U G40A", "self-cleavage": 0.169}, {"variant": "C3U U60A", "self-cleavage": 0.446}, {"variant": "C3U U67A", "self-cleavage": 0.0952}, {"variant": "C3U U7A", "self-cleavage": 0.427}, {"variant": "C3G A49G", "self-cleavage": 0.148}, {"variant": "C3A U52C", "self-cleavage": 0.619}, {"variant": "C3U C12U", "self-cleavage": 0.345}, {"variant": "C3A G56C", "self-cleavage": 0.147}, {"variant": "C4G G57C", "self-cleavage": 0.143}, {"variant": "C3G C18U", "self-cleavage": 0.341}, {"variant": "C3G C18G", "self-cleavage": 0.34}, {"variant": "C4A G42A", "self-cleavage": 0.111}, {"variant": "C3U C10U", "self-cleavage": 0.454}, {"variant": "C3U C10A", "self-cleavage": 0.276}, {"variant": "C4A U62A", "self-cleavage": 0.167}, {"variant": "C4A U62C", "self-cleavage": 0.118}, {"variant": "C4G A43U", "self-cleavage": 0.053}, {"variant": "C4G A43C", "self-cleavage": 0.121}, {"variant": "C3G G27U", "self-cleavage": 0.164}, {"variant": "C4G G13C", "self-cleavage": 0.178}, {"variant": "C3U A59U", "self-cleavage": 0.205}, {"variant": "C4G U58G", "self-cleavage": 0.241}, {"variant": "C3G G29A", "self-cleavage": 0.148}, {"variant": "C3A U63G", "self-cleavage": 0.174}, {"variant": "C3A U63C", "self-cleavage": 0.154}, {"variant": "C4U A59C", "self-cleavage": 0.126}, {"variant": "C3A G57U", "self-cleavage": 0.153}, {"variant": "C4A U52G", "self-cleavage": 0.22}, {"variant": "C4A U52C", "self-cleavage": 0.182}, {"variant": "C4A A23C", "self-cleavage": 0.222}, {"variant": "C3U C38A", "self-cleavage": 0.106}, {"variant": "C3U U62C", "self-cleavage": 0.23}, {"variant": "C4A C46A", "self-cleavage": 0.146}, {"variant": "C4G U52C", "self-cleavage": 0.174}, {"variant": "C3G A23C", "self-cleavage": 0.194}, {"variant": "C4A C65U", "self-cleavage": 0.137}, {"variant": "C3G U14C", "self-cleavage": 0.238}, {"variant": "C4A G17C", "self-cleavage": 0.225}, {"variant": "C3G A61U", "self-cleavage": 0.0942}, {"variant": "C3G A61G", "self-cleavage": 0.0947}, {"variant": "C3A G54U", "self-cleavage": 0.403}, {"variant": "C4G G51C", "self-cleavage": 0.207}, {"variant": "C4G G51U", "self-cleavage": 0.223}, {"variant": "C3U A35G", "self-cleavage": 0.717}, {"variant": "C3G G13U", "self-cleavage": 0.259}, {"variant": "C3A C66G", "self-cleavage": 0.234}, {"variant": "C3A C66U", "self-cleavage": 0.435}, {"variant": "C3A C66A", "self-cleavage": 0.188}, {"variant": "C4U A41G", "self-cleavage": 0.299}, {"variant": "C3U A24G", "self-cleavage": 0.494}, {"variant": "C3U A24U", "self-cleavage": 0.491}, {"variant": "C4A U55G", "self-cleavage": 0.107}, {"variant": "C3U A49U", "self-cleavage": 0.214}, {"variant": "C4A A59G", "self-cleavage": 0.145}, {"variant": "C4A G57U", "self-cleavage": 0.169}, {"variant": "C4U A26G", "self-cleavage": 0.221}, {"variant": "C4A A30C", "self-cleavage": 0.0814}, {"variant": "C3U G19A", "self-cleavage": 0.443}, {"variant": "C3U G19C", "self-cleavage": 0.373}, {"variant": "C3U G51A", "self-cleavage": 0.467}, {"variant": "C3U G27C", "self-cleavage": 0.177}, {"variant": "C3U G27A", "self-cleavage": 0.187}, {"variant": "C3A U5G", "self-cleavage": 0.117}, {"variant": "C3A U5C", "self-cleavage": 0.247}]}]}
